Data published in PMC2674214 (PLoS ONE, 2009).

Target: rHA of clade 1 H5N1 virus A/Viet Nam/1203/04 (Influenza A virus A/Viet Nam/1203/2004 …, UniProt Q5EP31, strain)
Assay: ELISA

B1: AVFluIgG03 (antibody, V domains shown)
VH: LESGGGLVQPGGSLRVSCTNSGFTFSDYAMSWVRQAPGKGLEWVSAISGNGGSSTYYADSVKGRFTISRDNSKNTMYLQMNSLRAEDTAVYYCVRDDSYDGGGQYGLHNWFDSWGQGTLVTV
VL: ELTQPPSVSGAPGQRVTISCTGSSSNIGAGYDVHWYQQLPGTAPKLLIYGNSNRPSGVPDRFSGSKSGTSASLAITGLQAEDEADYYCQSYDSSLVVFGGGTKLTVL
notes: also called rhAb AVFluIgG03; AVFluIg03; source: SF9 cells, purified on a Protein A column
- binding result: no binding
